This is an account of results in the DeepSol protein solubility set.

A short description of the series: soluble on expression in E. coli; label from the status in PepcDB or PDB records.
As to “MGSDKIHHHHHHMPTPRPWLYLGTTHALCEDCLALIPAKVVAEDGCVWHLKRCPAHGPQRTMISSDYAYWREARDFIKPGDLPAHFHTQVDKGCPHDCGLCPDHEQHSCLALVEVTDSCGLDCPTCFAQSRPGRGHRSLAEVEAMLDAVVRSEGGSPDIVQISGGEPADHPQILEILRAAKARPIRHVMLNTNGVRLARDPDFATALAGLGPGFEVYLQWDSLEPEALSVLRGADLREVRKGALAALDRHGISTTLVCVMAKGVNDGEVGAIIDHALAVACVRGVSFQPLQDAGRSPGLGKDSRMLPSDIRRAIIEQSNGLFGPADLVPLPCNPESITIAYALRHGNRATAVTGLVPRDLLLSAVPNALTFDAVPGLKDSLMRLLSMSCAGEDTAVQMGKLLCCLPGIQAPASLTYDKVFRLSIVQFLDRYSFCLGQVKRACVHVAQPDGKMIPIDTFNLFHRSNNHD”, the “soluble on expression in E. coli” value is listed as “not soluble”.
To “MGSDKIHHHHHHMGFVSTTFDVLIIGAGPSGASAAVHAARTGLQTLLIDASSFPRDKTCGDGLTPRAIHQLELLGVADQVTGDYFNKGLKLHGFGGSVEAPWPETYFTNKGSAMSRMEFDDLLFRLAKSHEEVTTWENASAQDPILRGNFLEGVVINHAGQEKTVKAKHVIIADGVRSPFGKKLGRQWQRDEVYGIAARAYCETPLSDEPWIHSHVELRDEDGVVQPGYGWIFPLGNGTVNLGCGALSTDTRPAKINTKKLLSFYAGQRRKAWQLGPEHDVASALLPMGGAVSNVAGANWMLIGDSAACVNPLNGEGIDYGLETAAMAVDTLVENPKRDLTLVWPHRLRDAYGETFMLARTAARLLTYPQFLPMAGPLAFRGPLQKAIMPAAARLMGNLITEEDKDLLARGWQAAGSAISWARKGSPLWDSTSSLV” belongs “not soluble”; to “MGSDKIHHHHHHMAFILMQNINKTFHGVKALNRVNLSLDYGEALCLAGQNGCGKSTLIKILSGVYQPDKGAEIQIGASKYTKLTPQASIEQGIQVIYQDLALFPNLTVAENIAINLHRKLGWVSQSEIHQVALNAILSINADLDLNAILEDLPIAQQQLVAICRALAQNARLLIMDEPTASLTAKEVQDLLKVVLKLKSKGISIIFVSHKLQEVMSVSDTVLVLKNGNMVGQYPISEMDEKRLGFLMTGLEIDYKRLDLPDFSQNRTVLEVQNLTLPNQYESINFSLREGEIIALTGLLGSGRTELCLSLFGITQPKSGDILLNGEKVIFQNNRDAIKQGIAYVSEDRMTTGLIMTESIHHNIISTIFHKITDKFNIIKSSKAYNYSQELIESLKIKVTDSDLPVNTLSGGNAQRVSIAKWLAIDPRIIILDAPTIGVDIANKEGIFQIIRTLAQKGIAVIFVTDEVEEAYYNSHKVIVMKKGKIVGEILPIYTTEKSIAEVVYENHQ”, “not soluble”; to “GPGSMYQLWGGSPFKPHKQNPSIMIDKSGTEVRLIGESRDVLQTLATNPKWANTYLAISSTCDVPSWARELLGTFEFTDYAGKTVPMHSLFSDRIEIYKANKAKQHEMILQKVNKVDPSVSEYAQMLFFDNQTDNVRHVSGIGVTSCYCPSGMTKGTFEKGLEMWRRAAAVEDVRYDRVVECRA”, “not soluble”.
Next, “MGSDKIHHHHHHMRVAIIGMGTAGVSVLRELVKHPKFNQLDIDLYDDKVNMGQGVPFQNDSSELLINMPSKKMSLNLDDETEFWKWYKQQTDFNFDEPAYLPRFVFGHYMKSYLSMFTKKYPNISTNYNKVQEIYTNSNIDETNLTYYICTTNSEQSWQAYDYVFLTCGTFAYHDPYNLKGKKGYIATPYPTYNTLDEVNELDDIAIIGTGLASLDVVRYVAAHHPKLPITMTSRSAHLPSVRGTMIDVTFKYLTKDKLNDIKKHHFGNAPLDTLVSLFLKECAEYDIDFKKLVYRRTGNHIADLKYDLARPTEMGIFQSMIEHLKENLNWIWNSLSIEDQHQFNQKYSKMIQLNSNPMPPRTAELIIELIENKSLILKKDLEDVKHDGKLYYFSYKNQESVDIYNVVINATGAKSHLNELDQDDQLIKNLENRQIVQAHPMGGIQIIPETNQVISPRFGTLTNMIAIGQMTNGVNKLRNGVKMIVEQVAHKVSQLYDALESNEQQQRSDNQ”: “not soluble”.
Next, “LYQHMQQQIQVQAAQNIALQDQLQQALIVPNQRIAQLEQQQLSDAKTFQELSKLATDQSQLQDRLNKLAQRSPTHWMASEAEYLVNMAGRKLWLEKDPRTATDLLKSADETIAAMNNPALLPIRKALAKDIAATTNLKSADIEGSVLALDALIGQLDKLPLNRADGEASTAEDTTISGDLNDWQSNLSKTWKALTQDFITIRHRTADVPALLAPDQQWYLVENIRHKLLQSQLALYRYDRAAYHQSLMMARQWIQSYFDVQAHQTSEAIAAIDKLATLELDPITLKAFEAKPLLLQLTSYGELTSLEEPQL”: “not soluble”; “MGSDKIHHHHHHMNAVQVLNFQQNSVRTVADNKGELWFLANDVCEILGYTNPRRTVDLHCKSRGVTKRYTPTTSGEQEMTYINEPNLYRLIIKSRKPAAEAFEEWVMETVLPAIRKTGGCQVGPKTTADDRTGLRQAVAALVGRKGIDYSSAYSMIHQRFNVESIEDLPAGKLPEAVAYVHALTLHTGLTGEVLDAPPKAEPKLPIDGNSLADIAAMVYYGTWMIESGKDISAPLKQLGCRQAVTMWTVWHETRPILKRSAAALEVLRGYADKDASDRIAACLEGIYGKATVR”: “not soluble”.
Take “SLAFVCLAIGCLYTFLISTTFGCTSSSDTEIKVNPPQDFEIVDPGYLGYMYLQWQPPLSLDHFKECTVEYELKYRNIGSETWKTIITKNLHYKDGFDLNKGIEAKIHTMLPWQCTNGSEVQSSWAETTYWIS”: the “soluble on expression in E. coli” value is recorded as “soluble”.
For “MDDATEQEVFNRMQMTQFEEKRFELVVIRAEDTVVVEPLRQRETCPKCHQILSSELSRLWHQFVHMDAYNGFLDGKFQIQLPDFEFVIPCPFSTCSLLFLDLIDARFHYLLEHQSCQLFCCGVRFSDYKTALEHLQGTGSVETEAWDQQKHFLKPVYICNCCNRTWSSRNEYVAHLHGRDHMCPDPVCKYIFETNEKCIRHFFEQHYKHLFLDSRHLLLNYKYFLRYQEKQEERAYGLYVCTTCQRRFRDNKGFQSHVASQNCEFFDRKFFVQVIACKCGHQFKYCYYQRDVLLRNLPVLREAMEHVEREAPFNNMPEDVCNIYRSIIVVIIDVNQRLINEKFTNYQRTSPLKHSSFTPRQMAKLLLEVVDYFWKIM”, the “soluble on expression in E. coli” value is listed as “not soluble”.
In the case of “MHRYLWQQADGKRHVYDTTRHRIQAEHSFTALCGETVIPRTERGDLTAGLWFDGECPVCTIALAKALGWPMRELADLAHRFTWSPELLARLAEILHCTSGEVAELTGARTVDT”, the “soluble on expression in E. coli” value was “not soluble”.
Regarding “MTTAPAKISEYTVSTPDRTVASVRADGIVAATPLGSHGYAADAGGPHLAPGVSAAAVVPVSPFRVDRTNWVVCPPVSVTVARDETTVELHADGHAHGRVPVDSPVTLSWGTPLPIAVVSHAGTHGD”, the “soluble on expression in E. coli” value was “soluble”.
Consider “KNKKVILFAPTFRGNGHRTAHYPFFKINFARLASYCEEHQATVLFKMHPFVRNKLNIPAIYSKYFLDISNYREVNDVLFITDILISDYSSLIYEFSVFKKPMLFYAFDLEDYIYTRDFYEPYETFVPGKIVKIFDELILALENNDFELEKVKPFLNKNFKYKDGKSSERLVKDLFNKFFQ”, for which the “soluble on expression in E. coli” value is on record as “not soluble”.
To “MFFAIILLVHTILLPSTLLYQCATAKRPANQRKSQRSTKSRKSSRRSRRRNGRSRKSSRSGKSSRSSKSGRSSKSSNSTKTTGSKSSKSSRSQRSNKSNKMVTNPKGFSDRKIRAAILADQKAAADAVKSQKLSSNNSSEKQLNAHNDNKISYVNVRVIPHELIFPPIGGMKHVRVKNSTGKPIAYMAKCSDNILFRINPVYGIIDTDRDAQINILRENGAAKHDKLVIVTTVHHDANKTAQHTFSQLNQGIENPNYNVNVVPLLTQ” belongs “soluble”; to “MGTMHTSELLKHIYDINLSYLLLAQRLIVQDKASAMFRLGINEEMANTLGALTLPQMVKLAETNQLVCHFRFDDHQTITRLTQDSRVDDLQQIHTGIMLSTRLLNEVDDTARKKRA”, “not soluble”; to “MNKLLSYYQKELAFLRKQGIEFAKKYPKVARRLGYNQGGSEDPHVQRLTESFAFLSSKIHQRLDEDLPELMEALLRNLAPQFLYNYPSSCIVSFEPDRKSSGITSTYRVPSGTSLYSRYKYKTICQFRTVYPLTIVPATVNKARIHYDNSSSLWKIELNLDVFDGANFSLDFVRFYLNGPATVTGIIYTLLCDEVDNIVLQRNNDVLYDISANISGAGFYESEVTLPQKGNVSYIHNLILDYFSFPERFNFIDIEFDSGIELCSGDSVRIEITLKSSAEKYEPDRIERNVSERLFKVNCSPVVNLFEKKTEPLRLSDGQDEYQVNTDLYSRNEVLIWDINKVTLHRYENDIVKQFPLKNLFGLEHSVIKQSCNIFWHSSCYRSSSERGNFEESVYIRLSDDGGAQSCIMTGDVLSIDAICTNGNIPSSINNGDPDGDFDCDIDIAQLRITALNRPSRMLPAMALKGMNWRIVSQLSLNFVLLSGTDGAMKLREMLSIYNYNNNHSISIFIEWIKELQITPVSSRLPGIYPPVTARGIDITVTLSKDADMHPECFMFCSFLDHFLGLHAPVNSFTRMITVIEHEEHTRRVWPIRAGKLTWL”, “not soluble”.
On to “MSLIPKFRAWDTYEKEMLENVTPLFDDSNSMIAIITDFQIKGSPGTSEIEIGSYDTTFNWDEFPYVIMQSTGLKDKNGVEIFEGDILVYDAPKKYAHRRSMHEIAYADGRFFWEFLDLVFCQSNILYRDGYLVIGNIHENPELLEGNEGHHHHHH”, for which the “soluble on expression in E. coli” value is listed as “soluble”.
Take “MSDVQSSLTGTWYNELNSKMELTANKDGTLTGKYLSKVGDVYVPYPLSGRYNLQPPAGQGVALGWAVSWENSKIHSATTWSGQFFSESSPVILTQWLLSSSTARGDVWESTLVGNDSFTKTAPTEQQIAHAQLHCRAPRLK”: the “soluble on expression in E. coli” value was “soluble”.
To “MGSDKIHHHHHHMTRIVESLAEISDLYDAVFCDLWGCVHDGITAFDEAIEALRAFKAKGGTVLLLTNAPRPRASVATQLDDFGIPRDCWDVIATSGDSARAAMLSGAVGTKVWHIGEPEHAPFFAPMDLVADAVDVTRVPLDEAEGIVCTGPFDPKADPSELRPQFLLAKTRRLKLLCANPDIVVDRGESREWCAGALAKLYTEMGGESLYFGKPHPPIYDLARRRLVQMGKPTPDDRILAIGDGIVTDVPGGIGENIDTLFITGGLARDETGTDHQPDPAKLARFLTDAQLEPTYSVGMLR” belongs “not soluble”; to “KHHHHHHIKPGALCVIDTPEGKGTGFFSGNDIVTAAHVVGNNTFVNVCYEGLMYEAKVRYMPEKDIAFITCPGDLHPTARLKLSKNPDYSCVTVMAYVNEDLVVSTAAAMVYGNTLSYAVRTQDGMSGAPVCDKYCRVLAVHQTNTGYTGGAVIIDPTDFHPV”, “soluble”.
To “MGSDKIHHHHHHAQDKPQEEGFVFTTVKENPITSIKNQNRSSTCWSFSSLGFLESELLRTGKGEYDLSEMFVVHHTMVDRAVNYVRYHGDSSFSPGGSFYDIMFCMKNYGLVPQDAMPGIMYGDSLPVHNELDATAGAYVNAIAKGNLKKLTPVWKKGLCAIYDTYLGQCPEKFTYKGKEYTPMTFAQSLGLNPDDYVSLTSYTHHPFYSQFAIEIQDNWRNGLSYNLPLDEFMAVMDNAVKNGYTFAWGSDVSEEGFTRDGIAVVPDAAKGAELTGSDMARWTGMTAADKRKELTSKPLPEMKITQEMRQTAFDNWETTDDHGMIIYGIAKDQNGKEYFMVKNSWGTNNKYKGTWYASKAFVAYKTMNILVHKDALPKDIAKKLGIK” belongs “not soluble”.
